Assay [1] has as its target T1, mFz: Fz domain and C-terminal flanking sequence of mouse MuSK (D307 to T494) with C-terminal Avi- and … (mouse, UniProt Q61006 307-494, limits assumed, biotinylated in vitro using the BirA enzyme).
T1 construct: also called mouse Fz; not shown: Avi- and His6-tags
T1 sequence (looked up): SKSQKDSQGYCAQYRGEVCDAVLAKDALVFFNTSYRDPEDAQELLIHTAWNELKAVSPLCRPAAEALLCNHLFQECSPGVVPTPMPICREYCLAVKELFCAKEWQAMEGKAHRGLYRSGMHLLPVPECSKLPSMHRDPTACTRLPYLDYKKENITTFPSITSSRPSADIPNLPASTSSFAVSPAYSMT
The assay can be described thus: bead-binding assay, IgG format: biotinylated antigen on streptavidin beads, flow cytometry, 1:1 fit; average ± s.d., n=3.

Assay [2] concerns the target T2, hECD: full-length extracellular region of human MuSK (E22 to T495) with C-terminal Avi- and His6-tags (human, UniProt O15146 22-495, biotinylated in vitro using the BirA enzyme).
T2 construct: also called human ECD; not shown: Avi- and His6-tags
T2 sequence: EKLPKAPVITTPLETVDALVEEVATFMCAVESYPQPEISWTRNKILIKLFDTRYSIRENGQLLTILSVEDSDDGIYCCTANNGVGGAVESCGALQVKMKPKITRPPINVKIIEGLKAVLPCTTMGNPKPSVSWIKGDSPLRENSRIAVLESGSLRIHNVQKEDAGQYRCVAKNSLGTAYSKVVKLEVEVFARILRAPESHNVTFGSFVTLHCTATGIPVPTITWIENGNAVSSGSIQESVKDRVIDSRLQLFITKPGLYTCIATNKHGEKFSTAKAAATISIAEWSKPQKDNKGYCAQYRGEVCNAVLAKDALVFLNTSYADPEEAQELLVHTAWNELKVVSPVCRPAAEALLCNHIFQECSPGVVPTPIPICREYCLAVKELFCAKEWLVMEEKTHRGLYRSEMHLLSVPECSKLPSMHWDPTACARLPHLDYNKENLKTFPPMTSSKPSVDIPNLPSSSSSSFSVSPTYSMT
The assay is described as above.

Assay [3] deals with T3, mECD: full-length extracellular region of mouse MuSK (E22 to T494) with C-terminal Avi- and His6-tags (mouse, UniProt Q61006 22-494, biotinylated in vitro using the BirA enzyme).
T3 construct: range 22-494; also called mouse ECD; not shown: Avi- and His6-tags
T3 sequence (looked up): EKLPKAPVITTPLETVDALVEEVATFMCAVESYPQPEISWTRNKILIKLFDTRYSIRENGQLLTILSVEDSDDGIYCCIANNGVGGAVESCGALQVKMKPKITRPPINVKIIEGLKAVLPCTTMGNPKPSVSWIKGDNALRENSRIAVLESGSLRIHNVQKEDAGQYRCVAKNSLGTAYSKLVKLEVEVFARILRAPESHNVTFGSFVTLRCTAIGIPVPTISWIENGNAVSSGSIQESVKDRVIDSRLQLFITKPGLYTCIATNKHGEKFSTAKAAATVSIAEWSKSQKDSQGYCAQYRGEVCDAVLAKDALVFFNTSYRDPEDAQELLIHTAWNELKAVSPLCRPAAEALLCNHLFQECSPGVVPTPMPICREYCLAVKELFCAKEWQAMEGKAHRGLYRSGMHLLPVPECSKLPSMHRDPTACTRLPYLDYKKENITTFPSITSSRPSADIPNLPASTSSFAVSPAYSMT
Described as above.

The target in assay [4] is T4, hFz: Fz domain and C-terminal flanking sequence of human MuSK (K314-T495) with C-terminal Avi- and His6-tags (human, UniProt O15146 314-495, biotinylated in vitro using the BirA enzyme).
T4 construct: also called human Fz; not shown: Avi- and His6-tags
T4 sequence: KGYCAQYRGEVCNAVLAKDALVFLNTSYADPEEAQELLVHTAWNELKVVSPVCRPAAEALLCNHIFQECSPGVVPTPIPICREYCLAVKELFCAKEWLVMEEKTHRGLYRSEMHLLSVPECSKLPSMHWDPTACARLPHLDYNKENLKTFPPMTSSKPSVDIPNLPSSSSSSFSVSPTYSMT
The assay is described as above.

Assay [5] concerns the target T1, mFz: Fz domain and C-terminal flanking …. Briefly: bead-binding titration, IgG format: antigen immobilized on streptavidin beads, MFI by flow cytometry, curve is the 1:1 fit.
Assay [6] deals with T3, mECD: full-length extracellular region …. The description is as above.
Assay [7] addresses T1, mFz: Fz domain and C-terminal flanking …. Briefly: bead-binding assay, Fab format: biotinylated antigen on streptavidin beads, flow cytometry, 1:1 fit; average ± s.d., n=3.
Assay [8] addresses T2, hECD: full-length extracellular region …. The description is as above.
The target of assay [9] is T3, mECD: full-length extracellular region …. The description is as above.
The target in assay [10] is T4, hFz: Fz domain and C-terminal flanking …. The assay is described as above.
For assay [11], the target named is T1, mFz: Fz domain and C-terminal flanking …. Briefly: bead-binding titration, Fab format: antigen immobilized on streptavidin beads, MFI by flow cytometry, curve is the 1:1 fit. (A flow cytometer gives signals particle by particle.)
Assay [12] addresses T2, hECD: full-length extracellular region …. The description is as above.
In assay [13] the target is T3, mECD: full-length extracellular region …. Described as above.
Assay [14] has as its target T4, hFz: Fz domain and C-terminal flanking …. Described as above.
The target of the next assay is T5, human MuSK (human, UniProt O15146 24-495).
T5 construct: Recombinant protein coated on ELISA plates (R&D Systems cat. 10189-MK) or on the Biacore chip; also called human muscle-specific tyrosine protein kinase; full length human MuSK
T5 sequence: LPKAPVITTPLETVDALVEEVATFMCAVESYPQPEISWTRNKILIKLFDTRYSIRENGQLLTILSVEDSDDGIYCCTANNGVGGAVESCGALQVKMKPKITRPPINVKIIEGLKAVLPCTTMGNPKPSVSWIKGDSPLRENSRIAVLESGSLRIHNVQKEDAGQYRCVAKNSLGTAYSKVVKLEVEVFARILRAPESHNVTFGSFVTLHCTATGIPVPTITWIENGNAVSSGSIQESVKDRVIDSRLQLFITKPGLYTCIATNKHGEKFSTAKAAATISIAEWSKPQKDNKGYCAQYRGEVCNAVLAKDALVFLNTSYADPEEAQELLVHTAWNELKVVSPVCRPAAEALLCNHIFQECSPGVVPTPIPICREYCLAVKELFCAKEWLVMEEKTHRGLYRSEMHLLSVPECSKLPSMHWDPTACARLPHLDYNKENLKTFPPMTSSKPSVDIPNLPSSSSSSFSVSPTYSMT
Briefly: ELISA, plate coated with human MuSK at 0.2 µg/ml, dilution series of mAb, goat anti human Fc-HRP and TMB, OD 620 nm (8 min). The procedure:
An ELISA plate was coated with human MuSK (R&D Systems, cat. 10189-MK) or mouse MuSK (in house produced in HEK293 cells) at 0.2 μg/ml. After washing and blocking the plate, a dilution series of the anti-MuSK antibodies was applied and allowed to bind for 2 hours at room temperature. […] OD at 620 nm was measured with a 96 well ELISA plate reader.
Background: An ELISA detects its analyte on a solid surface through an enzyme-linked reagent.

B1: hIgG1-X3 (antibody, V domains shown)
VH: EVQLVESGGGLVQPGGSLRLSCAASGFTISSSSIHWVRQAPGKGLEWVASISSSSGYTYYADSVKGRFTISADTSKNTAYLQMNSLRAEDTAVYYCARSWYEMWMSGYFGFDYWGQGTLVTVSS
VL: DIQMTQSPSSLSASVGDRVTITCRASQSVSSAVAWYQQKPGKAPKLLIYSASSLYSGVPSRFSGSRSGTDFTLTISSLQPEDFATYYCQQSSSSLITFGQGTKVEIK
notes: human IgG1 Fc containing LALA mutations; also called X3 in human IgG1 format
In the case of B1, the Kd in assay [1] worked out at 0.07 nM; in assay [2] it was 0.074 nM; in [3] it was 0.079 nM; in assay [4], 0.057 nM. Besides, the “EC50 (read off the curve)” value in assay [5] is ~0.07 nM; in [6], ~0.08 nM.

B2: X1 Fab (Fab, V domains shown)
VH: EVQLVESGGGLVQPGGSLRLSCAASGFTFSSSSIHWVRQAPGKGLEWVASISSSSGSTSYADSVKGRFTISADTSKNTAYLQMNSLRAEDTAVYYCARKYWSQYYWAHYYGGLDYWGQGTLVTVSS
VL: DIQMTQSPSSLSASVGDRVTITCRASQSVSSAVAWYQQKPGKAPKLLIYSASSLYSGVPSRFSGSRSGTDFTLTISSLQPEDFATYYCQQSSSSLITFGQGTKVEIK
notes: m52 is the same Fab tetramerized with streptavidin; also called Fab Clone X1 (monovalent Fab format)
Take B2: the Kd amounted to 1.09 nM in [7], 0.55 nM in [8], 1.34 nM in assay [9] and 0.39 nM in assay [10]. Also, the “EC50 (read off the curve)” value is ~1 nM in assay [11], ~0.5 nM in assay [12], ~1 nM in assay [13] and ~0.4 nM in assay [14].

B3: 14D10 (antibody, V domains shown)
VH: ELQLVESGGGLVQPGGSLRLSCAASGFTFDDYGMSWVRQAPGKGLEWVSAIPWNGGSTYYKESVKGRFTISRDNAKKTLYLQMNSLKSEDTAVYYCAKRSGRIAFGALDAWGQGTLVTVSS
VL: QAVVTQEPSLSVSPGGTVTLTCGLSSGSVTSSNYPDWYQQTPGQAPRTLIYTTNSRHSGVPSRFSGSISGNKAALTITGAQPEDEADYYCALYMGGGSNVYVFG
notes: human IgG1 with the LALA mutations (L234A, L235A); produced in HEK293 cells
For B3, the “EC50 (read off the curve)” value with human MuSK was ~0.04 mg/L.

B4: 17H10 (antibody, V domains shown)
VH: QVQVQESGPGLVKPSQTLSLTCTVSGGSITARYYSWSWIRQPPGKGLEWMGVIAYDGSTYYSPSLKSRTSISRDTSKNQFSLHLSSVTPDDTAVYYCARGSSRVAAAFDSWGQGTQVTVSS
VL: SYELTQSPSVSVALRQTAKITCGGNRIGGKSVQWYQQKPGQAPMLVIYADSRRPSGIPERFTGSNSGNTATLTITGAQAEDEADYYCHVWGSTASADFGGGTHLTVL
notes: as for B3
On to B4, for which the “EC50 (read off the curve)” value with human MuSK is ~0.02 mg/L.

For orientation: Kd means the constant that tells how readily two partners part at equilibrium. A word on the EC50 (read off the curve): it is the concentration giving half of the maximal effect. Read a high EC50 (read off the curve) as weaker potency.

Values taken from patent publication US20230151091A1 (NEW YORK UNIVERSITY, published 2023).
